Measurements from publication PMC11667226 (Theranostics, 2025).
Read-outs that look alike come from different tables or passages of the source. Non-standard residues stand in square brackets, D forms with d. Residues, ends and D or L forms follow the SMILES beside them. *: point of attachment. X1 = CC1(C)C(=CC=CC=CC=CC2=[N+](CCCCCC(=O)*)c3ccc4ccccc4c3C2(C)C)N(CCCCS(=O)(=O)[O-])c2ccc3ccccc3c21; Cha = N[C@@H](CC1CCCCC1)C(=O)O

Details: for TEAE Mild (Grade 1): No. events / TEAE Mild (Grade 1): No. patients (%) / TEAE Moderate (Grade 2): No. events / TEAE Moderate (Grade 2): No. patients (%) / TEAE Severe (Grade 3): No. events / TEAE Severe (Grade 3): No. patients (%): CTCAE v5.0
Procedure: ECGs were taken at baseline, 1 hr ± 15 min, and 44 hrs ± 6 h post-injection. Blood samples (including lever and kidney parameters) were sampled at baseline, 12 hrs ± 4 hrs, and 44 hrs ± 6 hrs post-injection. All laboratory analyses were performed by the Department of Biochemistry at Rigshospitalet. AE assessments were graded according to the National Cancer Institute “Common Terminology Criteria for Adverse Events (CTCAE)” version 5.0. There was no data monitoring committee in this trial.

## CC(C)C[C@H](NC(=O)[C@H](Cc1ccc(O)cc1)NC(=O)[C@@H](CCCNC(=N)N)NC(=O)[C@@H](CO)NC(=O)[C@H](Cc1ccccc1)NC(=O)[C@H](CC1CCCCC1)NC(=O)[C@H](CC(=O)O)NC(=O)[C@H](CCC(=O)O)NC(=O)[C@H](CCC(=O)O)NC(=O)CCCCC[N+]1=C(C=CC=CC=CC=C2N(CCCCS(=O)(=O)[O-])c3ccc4ccccc4c3C2(C)C)C(C)(C)c2c1ccc1ccccc21)C(=O)N[C@@H](Cc1c[nH]c2ccccc12)C(=O)N[C@@H](CO)C(=O)O [FG001, ICG-Glu-Glu-AE105] (X1-EED[Cha]F[dS][dR]YLWS-OH; N-terminus and C-terminus assumed)
ECGs at baseline, 1 hr and 44 hrs post-injection
  ECG abnormalities: No ECG abnormalities
FG001 4 mg i.v., N=5
  TEAE ALT increased: No. events: 0
  TEAE ALT increased: No. subjects (%): 0 (0.0%)
  TEAE AST increased: No. events: 1
  TEAE AST increased: No. subjects (%): 1 (20.0%)
  TEAE Blood ALP increased: No. events: 0
  TEAE Blood ALP increased: No. subjects (%): 0 (0.0%)
  TEAE Blood bilirubin increased: No. events: 1
  TEAE Blood bilirubin increased: No. subjects (%): 1 (20.0%)
  TEAE Blood creatinine increased: No. events: 0
  TEAE Blood creatinine increased: No. subjects (%): 0 (0.0%)
  TEAE Dysgeusia: No. events: 0
  TEAE Dysgeusia: No. subjects (%): 0 (0.0%)
  TEAE GGT increased: No. events: 0
  TEAE GGT increased: No. subjects (%): 0 (0.0%)
  TEAE Hypalbuminaemia: No. events: 4
  TEAE Hypalbuminaemia: No. subjects (%): 4 (80.0%)
  TEAE Hyperglycaemia: No. events: 0
  TEAE Hyperglycaemia: No. subjects (%): 0 (0.0%)
  TEAE Hypertension: No. events: 0
  TEAE Hypertension: No. subjects (%): 0 (0.0%)
  TEAE Hyponatraemia: No. events: 1
  TEAE Hyponatraemia: No. subjects (%): 1 (20.0%)
  TEAE Hypotension: No. events: 0
  TEAE Hypotension: No. subjects (%): 0 (0.0%)
  TEAE Hypothermia: No. events: 0
  TEAE Hypothermia: No. subjects (%): 0 (0.0%)
  TEAE Pneumonia: No. events: 0
  TEAE Pneumonia: No. subjects (%): 0 (0.0%)
  TEAE SOC General disorders and administration site conditions: No. events: 0
  TEAE SOC General disorders and administration site conditions: No. subjects (%): 0 (0.0%)
  TEAE SOC Infections and infestations: No. events: 0
  TEAE SOC Infections and infestations: No. subjects (%): 0 (0.0%)
  TEAE SOC Investigations: No. events: 2
  TEAE SOC Investigations: No. subjects (%): 2 (40.0%)
  TEAE SOC Metabolism and nutrition disorders: No. events: 5
  TEAE SOC Metabolism and nutrition disorders: No. subjects (%): 4 (80.0%)
  TEAE SOC Nervous system disorders: No. events: 0
  TEAE SOC Nervous system disorders: No. subjects (%): 0 (0.0%)
  TEAE SOC Vascular disorders: No. events: 0
  TEAE SOC Vascular disorders: No. subjects (%): 0 (0.0%)
FG001 4 mg i.v., n = 5
  FG001 related TEAEs: No. events: 0
  FG001 related TEAEs: No. patients (%): 0 (0%)
  SAEs: No. events: 0
  SAEs: No. patients (%): 0 (0%)
  TEAE: No. events: 7
  TEAE: No. patients (%): 4 (80%)
  TEAE Mild (Grade 1): No. events: 5
  TEAE Mild (Grade 1): No. patients (%): 2 (40.0%)
  TEAE Moderate (Grade 2): No. events: 2
  TEAE Moderate (Grade 2): No. patients (%): 2 (40.0%)
  TEAE Severe (Grade 3): No. events: 0
  TEAE Severe (Grade 3): No. patients (%): 0 (0.0%)
FG001 16 mg i.v., N=8
  TEAE ALT increased: No. events: 0
  TEAE ALT increased: No. subjects (%): 0 (0.0%)
  TEAE AST increased: No. events: 1
  TEAE AST increased: No. subjects (%): 1 (12.5%)
  TEAE Blood ALP increased: No. events: 0
  TEAE Blood ALP increased: No. subjects (%): 0 (0.0%)
  TEAE Blood bilirubin increased: No. events: 2
  TEAE Blood bilirubin increased: No. subjects (%): 2 (25.0%)
  TEAE Blood creatinine increased: No. events: 1
  TEAE Blood creatinine increased: No. subjects (%): 1 (12.5%)
  TEAE Dysgeusia: No. events: 1
  TEAE Dysgeusia: No. subjects (%): 1 (12.5%)
  TEAE GGT increased: No. events: 0
  TEAE GGT increased: No. subjects (%): 0 (0.0%)
  TEAE Hypalbuminaemia: No. events: 5
  TEAE Hypalbuminaemia: No. subjects (%): 5 (62.5%)
  TEAE Hyperglycaemia: No. events: 1
  TEAE Hyperglycaemia: No. subjects (%): 1 (12.5%)
  TEAE Hypertension: No. events: 1
  TEAE Hypertension: No. subjects (%): 1 (12.5%)
  TEAE Hyponatraemia: No. events: 0
  TEAE Hyponatraemia: No. subjects (%): 0 (0.0%)
  TEAE Hypotension: No. events: 1
  TEAE Hypotension: No. subjects (%): 1 (12.5%)
  TEAE Hypothermia: No. events: 1
  TEAE Hypothermia: No. subjects (%): 1 (12.5%)
  TEAE Pneumonia: No. events: 1
  TEAE Pneumonia: No. subjects (%): 1 (12.5%)
  TEAE SOC General disorders and administration site conditions: No. events: 1
  TEAE SOC General disorders and administration site conditions: No. subjects (%): 1 (12.5%)
  TEAE SOC Infections and infestations: No. events: 1
  TEAE SOC Investigations: No. events: 4
  TEAE SOC Investigations: No. subjects (%): 3 (37.5%)
  TEAE SOC Metabolism and nutrition disorders: No. events: 6
  TEAE SOC Metabolism and nutrition disorders: No. subjects (%): 5 (62.5%)
  TEAE SOC Nervous system disorders: No. events: 1
  TEAE SOC Vascular disorders: No. events: 2
  TEAE SOC Vascular disorders: No. subjects (%): 2 (25.0%)
FG001 16 mg i.v., n = 8
  FG001 related TEAEs: No. events: 0
  FG001 related TEAEs: No. patients (%): 0 (0%)
  SAEs: No. events: 0
  SAEs: No. patients (%): 0 (0%)
  TEAE: No. events: 15
  TEAE: No. patients (%): 8 (100%)
  TEAE Mild (Grade 1): No. events: 11
  TEAE Mild (Grade 1): No. patients (%): 4 (50.0%)
  TEAE Moderate (Grade 2): No. events: 4
  TEAE Moderate (Grade 2): No. patients (%): 4 (50.0%)
  TEAE Severe (Grade 3): No. events: 0
  TEAE Severe (Grade 3): No. patients (%): 0 (0.0%)
FG001 36 mg i.v., N=4
  TEAE ALT increased: No. events: 1
  TEAE ALT increased: No. subjects (%): 1 (25.0%)
  TEAE AST increased: No. events: 1
  TEAE AST increased: No. subjects (%): 1 (25.0%)
  TEAE Blood ALP increased: No. events: 1
  TEAE Blood ALP increased: No. subjects (%): 1 (25.0%)
